This is an account of results in patent US20120329854.

Targets include GST H3 1-15 T6A (UniProt P68431); GST-H3 1-135 T6A (UniProt P68431); GST-H3 1-15 (UniProt P68431); GST-H3 16-30 (UniProt P68431); GST-H3 29-44 (UniProt P68431).
Data set [1] concerns the target H3K4me1 peptide (H3 tail residues 1-20) (UniProt P68431).
Data set [2] has as its target H3K4me1T6ph peptide (H3 tail residues 1-20) (UniProt P68431).
In data set [3] the target is H3K4me2 peptide (H3 tail residues 1-20) (UniProt P68431).
The target in data set [4] is H3K4me2T6ph peptide (H3 tail residues 1-20) (UniProt P68431).
Data set [5] concerns the target GST-H3 1-135 (full-length histone H3) (UniProt P68431).
For data set [6], the target named is histone H3 in untreated nucleosomes purified from HeLa cells (UniProt P68431).

“bacterially expressed and purified His-LSD1”: the “demethylation assay, mass spectrometry” value in [1] is “demethylation of H3K4me1 by LSD1”; in data set [2] it was “demethylation of H3K4me1 by LSD1 is completely abrogated in the presence of phosphorylated T6”; in data set [3], “The robust demethylation of H3K4me2 observed in the presence of LSD1”; in data set [4] it was “is completely blocked when the peptides are phosphorylated at T6”.

As for “purified recombinant active PKCβI (ProQinase)”, the “phosphorylation in the presence of [γ-32P]ATP (autoradiography)” value is “mutation of threonine 6 to alanine in either H3 1-15 (H3 1-15 T6A) or in full length H3 (H3 1-135 T6A) abolishes phosphorylation” with GST H3 1-15 T6A; “only full-length histone H3 (H3 1-135) and a H3 fragment spanning amino acid residues 1 to 15 (H3 1-15), but not H3 16-30 or H3 29-44, are phosphorylated by PKCβI” in [5]; “mutation of threonine 6 to alanine in either H3 1-15 (H3 1-15 T6A) or in full length H3 (H3 1-135 T6A) abolishes phosphorylation” in the data set with GST-H3 1-135 T6A; “only full-length histone H3 (H3 1-135) and a H3 fragment spanning amino acid residues 1 to 15 (H3 1-15), but not H3 16-30 or H3 29-44, are phosphorylated by PKCβI” with GST-H3 1-15; “but not H3 16-30 or H3 29-44, are phosphorylated by PKCβI” with GST-H3 16-30; “but not H3 16-30 or H3 29-44, are phosphorylated by PKCβI” with GST-H3 29-44. Further, the “phosphorylation of nucleosomes at H3T6 (in vitro kinase assay, Western blot with α-H3T6ph)” value in [6] is “only PKCα, 131 and 132 phosphorylate nucleosomes at H3T6”.

Consider “purified recombinant active PKCδ (ProQinase)”, for which the “phosphorylation of nucleosomes at H3T6 (in vitro kinase assay, Western blot with α-H3T6ph)” value in [6] was “only PKCα, 131 and 132 phosphorylate nucleosomes at H3T6 (PKCδ tested, no phosphorylation)”.
